Reference: doi:10.1101/2021.04.27.441718

Key:
RbpB [1] = biological target: T1, RbpB (Bacteroides thetaiotaomicron VPI-5482, UniProt Q8A6J4 1-100); assay: EMSA
T1 sequence: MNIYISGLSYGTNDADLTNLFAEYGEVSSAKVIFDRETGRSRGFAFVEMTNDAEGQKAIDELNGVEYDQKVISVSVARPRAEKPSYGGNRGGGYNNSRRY

RbpB [2] = biological target: T1, RbpB; assay: EMSA; remark: listed apart in the source

**Q.** Does UCCUGUGCUCCUGUGCUCCUGUGC (ssRNA) [Motif 9 x3] bind (RbpB [1])?
**A.** no binding

**Q.** With GUAGGAUAGUAGGAUAGUAGGAUA (ssRNA) [Motif 1 x3] as the binder, how does the Kd (RbpB [2]) read?
**A.** 5.1 µM
